How the values were obtained:
[1] = molecular target: Env (gp120) of HIV-1 strain Ce2010_F5 (HIV-1)
[2] = molecular target: Env (gp120) of HIV-1 strain 89-F1_2_25 (HIV-1)
[3] = molecular target: Env (gp120) of HIV-1 strain 3817.v2.c59 (HIV-1)
[4] = molecular target: Env (gp120) of HIV-1 strain 6811.v7.c18 (HIV-1)
[5] = molecular target: Env (gp120) of HIV-1 strain CNE30 (HIV-1)
[6] = molecular target: Env (gp120) of HIV-1 strain AC10.0.29 (HIV-1)
[7] = molecular target: Env (gp120) of HIV-1 strain ZM233M.PB6 (HIV-1)
[8] = molecular target: Env (gp120) of HIV-1 strain 1006_11_C3_1601 (HIV-1)
[9] = molecular target: Env (gp120) of HIV-1 strain THRO4156.18 (HIV-1)
[10] = molecular target: Env (gp120) of HIV-1 strain TRO.11 (HIV-1)
[11] = molecular target: Env (gp120) of HIV-1 strain P1981_C5_3 (HIV-1)
[12] = molecular target: Env (gp120) of HIV-1 strain X1254_c3 (HIV-1)
[13] = molecular target: Env (gp120) of HIV-1 strain 1054_07_TC4_1499 (HIV-1)
[14] = molecular target: Env (gp120) of HIV-1 strain X1193_c1 (HIV-1)
[15] = molecular target: Env (gp120) of HIV-1 strain 3301.v1.c24 (HIV-1)
[16] = molecular target: Env (gp120) of HIV-1 strain CNE20 (HIV-1)
[17] = molecular target: Env (gp120) of HIV-1 strain 231966.c02 (HIV-1)
[18] = molecular target: Env (gp120) of HIV-1 strain 6545.v4.c1 (HIV-1)
[19] = molecular target: Env (gp120) of HIV-1 strain 6535.3 (HIV-1)
[20] = molecular target: Env (gp120) of HIV-1 strain 703357.C02 (HIV-1)
[21] = molecular target: Env (gp120) of HIV-1 strain T257-31 (HIV-1)
[22] = molecular target: Env (gp120) of HIV-1 strain ZM214M.PL15 (HIV-1)
[23] = molecular target: Env (gp120) of HIV-1 strain CAAN5342.A2 (HIV-1)
[24] = molecular target: Env (gp120) of HIV-1 strain WEAU_d15_410_787 (HIV-1)
[25] = molecular target: Env (gp120) of HIV-1 strain R1166.c01 (HIV-1)
[26] = molecular target: Env (gp120) of HIV-1 strain ZM135M.PL10a (HIV-1)
[27] = molecular target: Env (gp120) of HIV-1 strain SC422661.8 (HIV-1)
[28] = molecular target: Env (gp120) of HIV-1 strain 928-28 (HIV-1)
[29] = molecular target: Env (gp120) of HIV-1 strain 3415.v1.c1 (HIV-1)
[30] = molecular target: Env (gp120) of HIV-1 strain ZM109F.PB4 (HIV-1)
[31] = molecular target: Env (gp120) of HIV-1 strain X2131_C1_B5 (HIV-1)
[32] = molecular target: Env (gp120) of HIV-1 strain Du422.1 (HIV-1)
[33] = molecular target: Env (gp120) of HIV-1 strain 620345.c01 (HIV-1)
[34] = molecular target: Env (gp120) of HIV-1 strain 3718.v3.c11 (HIV-1)
[35] = molecular target: Env (gp120) of HIV-1 strain 3103.v3.c10 (HIV-1)

Substance	neutralization IC50 [1]	neutralization IC50 [2]	neutralization IC50 [3]	neutralization IC50 [4]	neutralization IC50 [5]	neutralization IC50 [6]	neutralization IC50 [7]	neutralization IC50 [8]	neutralization IC50 [9]	neutralization IC50 [10]	neutralization IC50 [11]	neutralization IC50 [12]	neutralization IC50 [13]	neutralization IC50 [14]	neutralization IC50 [15]	neutralization IC50 [16]	neutralization IC50 [17]	neutralization IC50 [18]	neutralization IC50 [19]	neutralization IC50 [20]	also measured
NIH45-46 IgG (antibody)	0.101 µg/mL	> 50 µg/mL	> 50 µg/mL	0.035 µg/mL	0.309 µg/mL	0.56 µg/mL	2.5 µg/mL	0.027 µg/mL	1.91 µg/mL	1.61 µg/mL	0.08 µg/mL	0.032 µg/mL	0.113 µg/mL	0.021 µg/mL	0.009 µg/mL	7.83 µg/mL	1.64 µg/mL	> 50 µg/mL	0.23 µg/mL	19.2 µg/mL	neutralization IC50 [21]: 0.49 µg/mL; neutralization IC50 [22]: 0.17 µg/mL; neutralization IC50 [23]: 0.15 µg/mL; neutralization IC50 [24]: 0.005 µg/mL; neutralization IC50 [25]: 0.31 µg/mL; neutralization IC50 [26]: 0.59 µg/mL; neutralization IC50 [27]: 0.06 µg/mL; neutralization IC50 [28]: 0.23 µg/mL; neutralization IC50 [29]: 0.022 µg/mL; neutralization IC50 [30]: 0.095 µg/mL; neutralization IC50 [31]: 0.23 µg/mL; neutralization IC50 [32]: > 50 µg/mL; neutralization IC50 [33]: > 50 µg/mL; neutralization IC50 [34]: 19.6 µg/mL; neutralization IC50 [35]: 1.77 µg/mL
NIH45-46^G54F IgG (antibody)	0.046 µg/mL	> 50 µg/mL	> 50 µg/mL	0.017 µg/mL	0.1 µg/mL	0.24 µg/mL	0.22 µg/mL	0.003 µg/mL	0.89 µg/mL	0.11 µg/mL	0.03 µg/mL	0.011 µg/mL	0.076 µg/mL	< 0.001 µg/mL	0.001 µg/mL	0.53 µg/mL	0.06 µg/mL	> 50 µg/mL	0.07 µg/mL	7.91 µg/mL	neutralization IC50 [21]: 0.17 µg/mL; neutralization IC50 [22]: 0.09 µg/mL; neutralization IC50 [23]: 0.1 µg/mL; neutralization IC50 [24]: < 0.001 µg/mL; neutralization IC50 [25]: 0.4 µg/mL; neutralization IC50 [26]: 0.13 µg/mL; neutralization IC50 [27]: 0.04 µg/mL; neutralization IC50 [28]: 0.11 µg/mL; neutralization IC50 [29]: < 0.001 µg/mL; neutralization IC50 [30]: 0.022 µg/mL; neutralization IC50 [31]: 0.1 µg/mL; neutralization IC50 [32]: > 50 µg/mL; neutralization IC50 [33]: > 50 µg/mL; neutralization IC50 [34]: 0.32 µg/mL; neutralization IC50 [35]: 0.37 µg/mL
NIH45-46^G54W IgG (antibody)	0.038 µg/mL	> 50 µg/mL	> 50 µg/mL	< 0.001 µg/mL	0.052 µg/mL	0.13 µg/mL	0.02 µg/mL	< 0.001 µg/mL	0.54 µg/mL	0.04 µg/mL	0.02 µg/mL	0.002 µg/mL	0.04 µg/mL	< 0.001 µg/mL	< 0.001 µg/mL	0.04 µg/mL	0.02 µg/mL	18.9 µg/mL	0.03 µg/mL	3.43 µg/mL	neutralization IC50 [21]: 0.13 µg/mL; neutralization IC50 [22]: 0.03 µg/mL; neutralization IC50 [23]: 0.07 µg/mL; neutralization IC50 [24]: < 0.001 µg/mL; neutralization IC50 [25]: 0.13 µg/mL; neutralization IC50 [26]: 0.04 µg/mL; neutralization IC50 [27]: 0.02 µg/mL; neutralization IC50 [28]: 0.06 µg/mL; neutralization IC50 [29]: < 0.001 µg/mL; neutralization IC50 [30]: 0.002 µg/mL; neutralization IC50 [31]: 0.05 µg/mL; neutralization IC50 [32]: > 50 µg/mL; neutralization IC50 [33]: > 50 µg/mL; neutralization IC50 [34]: 0.01 µg/mL; neutralization IC50 [35]: 0.2 µg/mL
NIH45-46^G54Y IgG (antibody)	0.049 µg/mL	> 50 µg/mL	> 50 µg/mL	0.011 µg/mL	0.099 µg/mL	0.19 µg/mL	0.16 µg/mL	0.005 µg/mL	0.66 µg/mL	0.08 µg/mL	0.04 µg/mL	0.013 µg/mL	0.064 µg/mL	0.006 µg/mL	0.003 µg/mL	0.33 µg/mL	0.06 µg/mL	> 50 µg/mL	0.08 µg/mL	5.6 µg/mL	neutralization IC50 [21]: 0.18 µg/mL; neutralization IC50 [22]: 0.06 µg/mL; neutralization IC50 [23]: 0.1 µg/mL; neutralization IC50 [24]: 0.002 µg/mL; neutralization IC50 [25]: 0.24 µg/mL; neutralization IC50 [26]: 0.09 µg/mL; neutralization IC50 [27]: 0.04 µg/mL; neutralization IC50 [28]: 0.12 µg/mL; neutralization IC50 [29]: < 0.001 µg/mL; neutralization IC50 [30]: 0.026 µg/mL; neutralization IC50 [31]: 0.1 µg/mL; neutralization IC50 [32]: > 50 µg/mL; neutralization IC50 [33]: > 50 µg/mL; neutralization IC50 [34]: 0.3 µg/mL; neutralization IC50 [35]: 0.3 µg/mL

— patent US20200165325A1
